Substrate in data set [1]: CN1CC=C(c2cccn2C)CC1
Nature of the data set: Spectrophotometric MAO-B assay with MMTP as substrate. Format: biochemical, human. The note with it: other: MMTP as substrate; 37.0 °C.

Substrate in data set [2]: CN1CC=C(c2cccn2C)CC1
The experiment in a line: Spectrophotometric MAO-A assay with MMTP as substrate. The data set is classed as biochemical, human. To be noted: other: MMTP as substrate; 37.0 °C.

The text below walks through data of publication PMC6442233, “SAR and molecular mechanism studies of monoamine oxidase inhibition by selected chalcone analogs” (Journal of Enzyme Inhibition and Medicinal Chemistry, 2019).

B1: human MAO-B (Homo sapiens) (protein)
chain: MSNKCDVVVVGGGISGMAAAKLLHDSGLNVVVLEARDRVGGRTYTLRNQKVKYVDLGGSYVGPTQNRILRLAKELGLETYKVNEVERLIHHVKGKSYPFRGPFPPVWNPITYLDHNNFWRTMDDMGREIPSDAPWKAPLAEEWDNMTMKELLDKLCWTESAKQLATLFVNLCVTAETHEVSALWFLWYVKQCGGTTRIISTTNGGQERKFVGGSGQVSERIMDLLGDRVKLERPVIYIDQTRENVLVETLNHEMYEAKYVISAIPPTLGMKIHFNPPLPMMRNQMITRVPLGSVIKCIVYYKEPFWRKKDYCGTMIIDGEEAPVAYTLDDTKPEGNYAAIMGFILAHKARKLARLTKEERLKKLCELYAKVLGSLEALEPVHYEEKNWCEEQYSGGCYTTYFPPGILTQYGRVLRQPVDRIYFAGTETATHWSGYMEGAVEAGERAAREILHAMGKIPEDEIWQSEPESVDVPAQPITTTFLERHLPSVPGLLRLIGLTTIFSATALGFLAHKRGLLVRV
notes: purchased Sigma-Aldrich
Take B1: the Km in data set [1] was 101 µM.

B2: human MAO-A (Homo sapiens) (protein)
chain: MENQEKASIAGHMFDVVVIGGGISGLSAAKLLTEYGVSVLVLEARDRVGGRTYTIRNEHVDYVDVGGAYVGPTQNRILRLSKELGIETYKVNVSERLVQYVKGKTYPFRGAFPPVWNPIAYLDYNNLWRTIDNMGKEIPTDAPWEAQHADKWDKMTMKELIDKICWTKTARRFAYLFVNINVTSEPHEVSALWFLWYVKQCGGTTRIFSVTNGGQERKFVGGSGQVSERIMDLLGDQVKLNHPVTHVDQSSDNIIIETLNHEHYECKYVINAIPPTLTAKIHFRPELPAERNQLIQRLPMGAVIKCMMYYKEAFWKKKDYCGCMIIEDEDAPISITLDDTKPDGSLPAIMGFILARKADRLAKLHKEIRKKKICELYAKVLGSQEALHPVHYEEKNWCEEQYSGGCYTAYFPPGIMTQYGRVIRQPVGRIFFAGTETATKWSGYMEGAVEAGERAAREVLNGLGKVTEKDIWVQEPESKDVPAVEITHTFWERNLPSVSGLLKIIGFSTSVTALGFVLYKYKLLPRS
notes: purchased Sigma-Aldrich
With B2, in data set [2], the Km was 88 µM.
